Experimental data as given in patent publication US20070060521.

Assays:
[1] = system: purified baculovirus-expressed STAT3 (full-length)
[2] = system: purified baculovirus-expressed STAT3β

Substance	in vitro phosphorylation of STAT3 (32P-ATP, SDS-PAGE, autoradiography) [1]	in vitro phosphorylation of STAT3b (32P-ATP, SDS-PAGE, autoradiography) [2]
purified ERKs protein kinases (BIOMOL)	STAT3 phosphorylation by ERK, however, is minimal compared to levels achieved for JNK and p38	STAT3b does not undergo serine phosphorylation by any of the MAPKs
purified JNK protein kinase (BIOMOL)	p38 and JNK can effectively phosphorylate STAT3 in vitro	STAT3b does not undergo serine phosphorylation by any of the MAPKs
purified p38 protein kinase (AG Scientific)	p38 and JNK can effectively phosphorylate STAT3 in vitro	STAT3b does not undergo serine phosphorylation by any of the MAPKs
